This is an account of results in paper PMC12052392 (PLOS Pathogens, 2025).

For experiment [1], the target named is SARS-CoV-2 spike (S) protein, full-length, expressed on the surface of HEK-293T cells (SARS-CoV-2 prototype (MN908947.3), UniProt P0DTC2). Nature of the experiment: flow cytometry on cells. The following applies: one partner purified. A general note: In flow cytometry, cells or beads pass a laser one at a time.
Experiment [2] has as its target S2 (T1076-Q1208) protein as coated in ELISA (devoid of the His tag) (SARS-CoV-2, MN908947.3, UniProt P0DTC2). Nature of the experiment: ELISA; […], room temperature; […]. The following applies: both partners purified. (In an ELISA, binding on a coated surface is turned into a signal by an enzyme label.)
Experiment [3] addresses SARS-CoV-2 S2 (T1076-Q1208) antigen, trimeric S2 fusion-core-based antigen (SARS-CoV-2 prototype (MN908947.3), UniProt P0DTC2, biotin (Biotinylation Kit)).
The target in experiment [4] is HKU3 spike (S) protein expressed on HEK-293T cells (Bat SARS-like coronavirus HKU3, GenBank …, UniProt A0A7G6UAJ9, strain). Nature of the experiment: flow cytometry on cells. The following applies: one partner purified.
Experiment [5] concerns the target WIV1 spike (S) protein expressed on HEK-293T cells (Bat SARS-like coronavirus WIV1 …, UniProt U5WI05, strain). The experiment in a line: flow cytometry on cells. The following applies: one partner purified.
In experiment [6] the target is SARS-CoV spike (S) protein expressed on HEK-293T cells (SARS-CoV, GenBank AY278554.2, UniProt P59594). The experiment in a line: flow cytometry on cells. The following applies: one partner purified.
The target of experiment [7] is PANG/GD spike (S) protein expressed on HEK-293T cells (Pangolin coronavirus Guangdong …, strain). Nature of the experiment: flow cytometry on cells. The following applies: one partner purified.
Experiment [8] has as its target T1, GST-fused truncated S2 protein S2 (D1139-L1152) (SARS-CoV-2, MN908947.3).
T1 construct: not shown: GST, N-terminal, kept
T1 chain: DPLQPELDSFKEEL
The experiment in a line: ELISA; […], room temperature; […]. The following applies: both partners purified.

The target of experiment [9] is T2, GST-fused truncated S2 protein S2 (T1076-H1159) (SARS-CoV-2 prototype (MN908947.3), UniProt P0DTC2).
T2 construct: not shown: GST, N-terminal, kept
The experiment in a line: far-Western, overlay or dot blot. The following applies: both partners purified.

Experiment [10] has as its target T3, epitope SH-peptide (spanning residues D1139-D1153) (SARS-CoV-2 prototype, UniProt P0DTC2).
T3 chain: DPLQPELDSFKEELD
The experiment in a line: crystal structure. The following applies: both partners purified.

The target in experiment [11] is T4, GST-fused truncated S2 protein S2 (P1140-L1152) (SARS-CoV-2 prototype (MN908947.3), UniProt P0DTC2).
T4 construct: not shown: GST, N-terminal, kept
T4 chain: PLQPELDSFKEEL
Nature of the experiment: BLI; […]; 20 mM HEPES pH 7.4, 150 mM NaCl, 0.05% Tween-20. The following applies: both partners purified. A general note: In BLI a coated tip is dipped into the sample, and binding shifts an interference pattern.

Experiment [12] addresses T5, GST-fused truncated S2 protein S2 (D1139-E1150) (SARS-CoV-2, MN908947.3, UniProt P0DTC2).
T5 construct: not shown: GST, N-terminal, kept
T5 chain: DPLQPELDSFKE
The experiment is described as above. The following applies: both partners purified.

The target of experiment [13] is T6, GST-fused truncated S2 protein S2 (P1140-D1153) (SARS-CoV-2, MN908947.3, UniProt P0DTC2).
T6 construct: not shown: GST, N-terminal, kept
T6 chain: PLQPELDSFKEELD
The description is as above. The following applies: both partners purified.

Experiment [14] concerns the target T7, GST-fused truncated S2 protein S2 (L1141-L1152) (SARS-CoV-2 prototype (MN908947.3), UniProt P0DTC2).
T7 construct: not shown: GST, N-terminal, kept
T7 chain: LQPELDSFKEEL
The description is as above. The following applies: both partners purified.

B1: nanobody H177 (VHH)
VHH: QVQLVESGGGRVPPGGSLRLSCVASGFYWDYFVISWFRQAPGKEREWVSCIRSATDSANYADFVKGRFTISRENGKSTVYLQMNSLTPEDTAVYRCAVAYGTSWCRNPADMNYWGKGTLVTVSS
notes: not shown: His6, C-terminal, kept
Consider B1, for which the binding result in experiment [1] and in experiment [2] was “binds” in each case.

B2: H102 (VHH)
VHH: QVQLVESGGGLVQPGGSLRLSCTGSGLSLEDYAIGWFRQAPGKDRNWVACIPHKREPLYRDYVRGRFTISRNNTANTVDLQMNSLKPEDTAVYYCTAVRRCFLTTWTPINPYYGMHSWGKGTLVTVSS
Turning to B2, the binding result in [3] is on record as “binds”.

B3: nanobody H85 (VHH)
VHH: QLQLVESGGGLVQAGGSLRLSCAASGSTISRHAMGWYRQAPGMQRELVASISSGGTTNYADSVKGRFTISRDSAKNMVYLHMTSLKPEDTAVYYCATKPVHMLTRRLHLGGCTYGMDYWGKGTLVTVSS
notes: as for B1
Regarding B3, the binding result in experiment [2] is “binds”.

B4: H36 (VHH)
VHH: QVQLVESGGALVQPGGSLTLSCSGHGITLRHYTVGWFREAPGKRRQWISSIRSSDERTNYAASVKGRFIISRNDGENTVKLQLNDVGPEDMATYRCAAGADTIKVFSGWAADYMFWGQGTQVTVSS
As to B4, the binding result in [3] is recorded as “binds”.

B5: H27 (VHH)
VHH: EVQVVESGGGLVQAGDSLTLSCVAVQGERFFSQYTVGWFRQAPGRERTLVATINYSRETYYSDSAKGRFTISRDNAKNTVYLQMNSLNPEDTATYYCAATRHARISTTITEDRYDYWGQGTQVTVSS
Consider B5, for which the binding result in [3] was “binds”.

B6: H184 (VHH)
VHH: QLQLVESGGGLVQPGGSLTLSCTASVDYYALGWFRQTPEKQREGVSCIGISGQRTFYADSVKGRFNITRDNTRKTAFLQMKDLKPEDTGVYFCAAERGRTVDAMCLKARPDYWGQGTQVTVSS
In the case of B6, in [3], the binding result was “binds”.

B7: nanobody H58 (VHH)
VHH: QLQLVESGGGLADDGGSLRLSCAASGFALRYWTVGWFRQAPGKEREGLACISRSGNITSYTDSAKGRFTISRDNAKNTVYLQMNSLKPEDTAVYYCTAVRRCFLTTWTPINPYYGMHSWGKGTLVTVSS
notes: as for B1
On to B7, for which the binding result in experiment [1] and in experiment [2] was “binds” each time.

B8: nanobody H49 (VHH)
VHH: QLQLVESGGGSVQAGGSLRLACTTSGRTFNKYAMAWFRQPPGQEREFIASITWIGGSTYYANSAKGRFTISRDNAKNTAYLQMNSLKPDDTAVYQCQLRKGILSYWGQGTQVTVSS
notes: as for B1
Turning to B8, the binding result in [1] and in experiment [2] was “binds” each time.

B9: nanobody H8 (VHH)
VHH: QVQLVESGGGLVQTGGSLRLSCAVSRFTLDYGATGWFRQAPGKEREGVSCIGRDDGSTYYAESVKGRFTMSRDKAKNTVYLEMNSLKPEDTAVYYCAADYFARCAANLPNRYLYWGQGTQVTVSS
notes: as for B1
On to B9, for which, in experiment [2], the binding result is reported as “binds”.

B10: nanobody H68 (VHH)
VHH: EVQVVESGGGLVQPGGSLRLSCVGSSFTLNAIGWFRQAPGKEREWVSCTTGDGSTNYPDSVKGRFTISRDNAKNTVYLQMNSLKPEDTAVYYCTAVRRCFLTTWTPINPYYGMHSWGKGTLVTVSS
notes: as for B1
With B10, the binding result in experiment [1] and in [2] was “binds” in each case.

B11: H147 (VHH)
VHH: QVQLVESGGAWVQPGGSLRLSCVASGFTLDYYAVGWFRQAPGKEREGVSCISRRGGESTNYASSVKGRFTISRDSVKNTVYLQMNSLKPEDTAVYYCAAVLRCFSTTWAPINPYYGMHSWGKGTLVTVSS
As for B11, the binding result in [3] is “binds”.

B12: nanobody H180 (VHH)
VHH: QVQLVESGGGLVQAGGSLKLSCAASGLRSDGTAIGWFRQAPGKEREWVSCIRRRDGGTYYADSVESRFTISRDVAKNTVHLQMNSLKPEDTAVYYCASRDDSWCTTRSYEYSYWGQGTPVTVSS
notes: as for B1
With B12, the binding result in experiment [1] and in experiment [2] was “binds” each time.

B13: nanobody H93 (VHH)
VHH: QLQLVESGGGLVQPGGSLRLSCVVSGGTLDYHAIAWFRQAPGKVREGVLCISSSGGSTNWLEAVKGRFTISRDNAKNTVYLQMNSLKPEDTAVYYCAAVRRCFLTTWTPINPYYGMHSWGKGTLVTVSS
notes: as for B1
Regarding B13, the binding result in experiment [1] and in experiment [2] was “binds” in each case.

B14: H6 (VHH)
VHH: QVQLVESGGGLVEAGGSLRLSCTTSGGTLSPYTMGWFRQAPGKGREFVSGISCLGWHSYEGDSVKGRFTISRDNAKNTLYLQMNSLKPEDTAVYYCAASSGCSSTMIDADFTSWGQGTQVTVSS
Consider B14, for which, in [3], the binding result is recorded as “binds”.

B15: H15 (VHH)
VHH: QLQLVESGGALAQPGGSLTLSCAVRGATLDSYAIAWFREAPGEEREGVACIGGSEESTFMKYSLKDRVSLSTNRAEKMVYLHMNSLQPEDTAAYYCAASASGSRSVLAGCPSRTMGFWGKGTLVTVSS
Consider B15, for which, in experiment [3], the binding result is “binds”.

B16: nanobody H145 (VHH)
VHH: QVQLVESGGGLVQTGGSLRLSCEASGSAFSSYAVNWYRQAPGKQREPVAAIGSFNTVYSDSVKGRFTISRDNAKNTVYLQMNSLKPEDTAVYICNARRGATNTWGQGTQVTVSS
notes: also called anti-SH nNb H145; not shown: His6, C-terminal, kept
The term EC50 denotes the concentration giving half of the maximal effect. Read a low EC50 as an effect from little substance. For B16, the binding result in experiment [4], in [5], in experiment [6], in experiment [7], in experiment [1] and in experiment [2] was “binds” in each case. Further, the binding result is given as “binds” in experiment [9]; “binds” in [10]; “no binding (tested: 200 nM)” in experiment [11]; “binds” in [12]; “no binding (tested: 200 nM)” in experiment [13]; “no binding (tested: 200 nM)” in experiment [14]. The EC50 in [8] amounted to 2 nM.

B17: nanobody H23 (VHH)
VHH: EVQVVESGGGWVQAGGSRRLSCAASGFTLDSYAVGWFRQAPGKEREGVSCISGISSSGGTTNYVDSVKGRFTISRDNAKNTVYLQMNSLKPEDTAVYYCAAVRRCFLTTWTPINPYYGMHSWGKGTLVTVSS
notes: as for B1
For the molecule B17, the binding result in experiment [2] is reported as “binds”.

B18: nanobody H84 (VHH)
VHH: QLQLVESGGGWVQAGGSLRLSCAASGFTLDSYAVGWFRQAPGKEREGVSCISGISSSGGTTNYVDSVKGRFTISRDNAKNTAELQMNSLKPEDTAVYYCTAVRRCFLTTWTPINPYYGMHSWGKGTLVTVSS
notes: as for B1
Take B18: the binding result in experiment [2] is listed as “binds”.

B19: H45 (VHH)
VHH: QLQLVESGGGSVQSGGSLRLSCLATGRKLDDLVIKWFRQPPGKLREGVACISGSGRTIKYADSVKGRFIISNEYGKNTVYLQMNSLTPDDTAVYYCAAEQILCDRKWYPLGNDYYGQGTQVTVSS
For the molecule B19, in experiment [3], the binding result is “binds”.

B20: nanobody H88 (VHH)
VHH: QVQLVESGGGLLQPGGSLRLSCAASGFTLDNYAIGWFRQAPGKEREWVSCISVSDGRTYYADSVQGRFTTSRDNAKNTVYLHLNSLKPEDTAVYSCASRRGRWCTTRSYEYEYWGQGTQVTVSS
notes: as for B1
Regarding B20, the binding result in experiment [2] is given as “binds”.

B21: H43 (VHH)
VHH: EVQVVESGGDLVQAGASLRLSCAAPEPVFISSFGNKYAFGWFRQAPGKQRELVASISGIGNTNYADSVNGRFTISRDNAKNSVYLQMNSLKPEDTAVYYCTAVRRCFLTTWTPINPYYGMHSWGKGTLVTVSS
For the molecule B21, the binding result in [3] is “binds”.
